T1: human LAG3 expressed on cells (human, UniProt P18627 23-525)
T1 construct: whole, on cells
T1 sequence (looked up): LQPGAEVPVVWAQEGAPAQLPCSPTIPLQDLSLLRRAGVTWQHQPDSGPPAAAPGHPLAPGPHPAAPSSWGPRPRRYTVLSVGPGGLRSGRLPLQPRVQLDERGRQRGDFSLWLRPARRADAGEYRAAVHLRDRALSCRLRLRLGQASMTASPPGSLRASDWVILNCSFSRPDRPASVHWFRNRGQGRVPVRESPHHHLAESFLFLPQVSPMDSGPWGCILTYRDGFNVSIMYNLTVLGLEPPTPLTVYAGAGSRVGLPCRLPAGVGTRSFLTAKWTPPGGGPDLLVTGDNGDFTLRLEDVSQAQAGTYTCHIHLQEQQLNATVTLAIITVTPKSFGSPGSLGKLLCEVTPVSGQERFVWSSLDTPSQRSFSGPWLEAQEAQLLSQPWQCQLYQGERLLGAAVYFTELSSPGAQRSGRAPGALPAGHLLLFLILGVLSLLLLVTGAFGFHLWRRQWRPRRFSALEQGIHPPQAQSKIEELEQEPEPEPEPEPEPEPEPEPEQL


Tests used:
[1] = biological target: T1, human LAG3 expressed on cells; assay: cell ELISA, 293T-hLAG3 cells
Method: Each well was treated with stimulants. The cells were then fixed and blocked with Blocking buffer. The Primary antibodies were added. The wells were washed and a HRP-conjugated secondary antibody was added. The wells were washed with 1x PBS and a solution containing TMB (Biopanda, TMB-S-004) was added. The TMB reacted with HRP to change the color thereof from colorless to blue. An acid stop solution (Solarbio, C1058) was then added to stop the reaction and change the blue color to yellow.
Materials are listed below: [0072] […] 2) Blocking buffer: 1×PBS+3% BSA (Sigma, B2064); [0074] […] [0075] 4) Secondary antibody: Goat anti-human IgG1 Fc antibody, HRP (1:2500, invitrogen, A18817). [0076]

[2] = biological target: T1, human LAG3 expressed on cells; assay: FACS, 293T-hLAG3 cells
Method: 5) The prepared antibody samples were added to the 96-well plate according to the platemap, the cells were resuspended and incubate at 4° C. for 1 hour.
7) 3% BSA/1xPBS was used to dilute Goat polyclonal Secondary Antibody to Human IgG-Fc (DyLight® 650) to the desired concentration (1:200), in which the cells were resuspended and incubated at 4° C. for 1 hour.
9) The cells were resuspended in 200 µl of 3% BSA/1xPBS, and performed flow cytometric testing by Shsti Biotech Inc.

EC50 [1] [nM] | OD450 at 0.0045725 ug/ml [1] | OD450 at 0.0137174 ug/ml [1] | OD450 at 0.0411523 ug/ml [1] | OD450 at 0.1234568 ug/ml [1] | OD450 at 0.3703704 ug/ml [1] | OD450 at 1.111111 ug/ml [1] | OD450 at 3.333333 ug/ml [1] | OD450 at 10 ug/ml [1] | EC50 [2] [nM] | FACS signal at 0.061 nM [2] | FACS signal at 0.1829 nM [2] | FACS signal at 0.5487 nM [2] | FACS signal at 1.6461 nM [2] | FACS signal at 4.9383 nM [2] | FACS signal at 14.815 nM [2] | FACS signal at 44.445 nM [2] | FACS signal at 133.335 nM [2] | Binder
0.904 | 0.104 | 0.259 | 0.543 | 1.01 | 1.3 | 1.42 | 1.44 | 1.48 | – | – | – | – | – | – | – | – | – | sdAb No. 17 (VHH, Fc of the tested form not described; also called sdAb 17; not shown: Fc part implied by anti-human Fc capture and anti-human IgG1 Fc detection) VHH: QLQLVESGGGLVQPGGSLRLSCAASGLTLDGYAIGWFRQAPGKEREGLACISGSDGSTHYLDSVKGRFTISRDNGKNTMALQMNSLQFGDTAIYYCAARRGSCSGSWTYWGQGTQVTVSS
– | – | – | – | – | – | – | – | – | 1.48 | 99.2 | 247 | 618 | 1410 | 2000 | 2280 | 2540 | 2580 | sdAb No. 25 (VHH, Fc of the tested form not described; also called sdAb 25; sdAb #25; not shown: Fc part implied by anti-human Fc capture and anti-human IgG Fc detection) VHH: QLQLVESGGGLVQAGGSLRLSCAASGSIESFSFMGWYRQAPGKQRELVAGFTGAASLSFSTYTDAVKGRFTISRDNAKNTVYLQMNSLKPEDTAVYFCNVDPWSQSWPGRYWGQGTQVTVSS
1.18 | 0.097 | 0.198 | 0.408 | 0.79 | 1.13 | 1.28 | 1.21 | 1.26 | 1.77 | 163 | 393 | 1010 | 2240 | 3570 | 4130 | 4490 | 4630 | sdAb No. 27 (VHH, Fc of the tested form not described; also called sdAb 27; not shown: Fc part implied by anti-human Fc capture and anti-human IgG Fc detection) VHH: QVQLVESGGGLVQPGGSLRLSCAASGFTLDYYAIGWFRQAPGKEREGVSCIRSSDGSTYYADSVKGRFTISSDNTKNTVYLQMNSLKPEDTAVYYCATDRYSDCRGPYENWGQGTQVTVSS
